Experimental findings from the nanobody polyreactivity screen of Harvey et al. (2022) are described below.

This data set can be described thus: yeast display, Sf9 membrane polyspecificity reagent, FACS + sequencing; frameworks hold sequencing errors. Summed up: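 Polyreactivity labels are assigned by the sorting gate from which each nanobody was recovered. The gates were low and high (top ~1%), set on anti-HA fluorescence for expression and streptavidin fluorescence for reagent binding. Before sorting, galactose-induced (36–48 hours) yeast display cells were stained for 1 hour at 4 °C with 10% biotinylated, detergent-solubilized Sf9 membrane reagent.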
On to “QVQLVESGGGLVQAGGSLRLSCAASGNIFSFNDVGGSRQAPGNEREWVAAITSSDSTNYADSVKGRFTISRDNAKNTVYLQMNSLKPEDTAVYYCATEILTAARDTVVYQFYLGYYYWGQGTQVTVSS”, for which the “polyreactivity (PSR sort gate)” value is “low polyreactivity”.
For the sequence “QVQLVESGGGLVQAGGSLRLSCAASGNIFSFYAMGWYRQAPGKERELVAAINWSGGDTYYADSVKGRFTISRDNAKNTVYLQMNSLKPEDTAVYYCAAEYYYQYYPGGYDYWGQGTQVTVSS”, the “polyreactivity (PSR sort gate)” value is reported as “high polyreactivity”.
To “QVQLVESGGGLVQAGGSLRLSCAASGNIFSRYAMGWYRKAPGKERELVAAISKSGGSTYYADSVKGRFTISRDNAKNTVYLQMNSLKPEDSAVYYCAAYSFFLGYPEFDYWGQGTQVTVSS” belongs “high polyreactivity”; to “QVQLVESGGGLVQAGGSLRLSCAASGNIFSSNAMGWYRQAPGKERELVAAITRSGGSTYYADSVKGRFTISRDNSKKTVYLLMNSLKPEDTAFYYCAARHYPRNSWGYDYWGQGSQVTVSS”, “high polyreactivity”.
As for “QVQLVESGGGLVQAGGSLRLSCAASGNIFSVYAMGWYRQAPGKERELVAAISSSGGRTYYADSVKGRFTISRENSKNTVYLQMNSLKPEDTAVYYCAARSYTGQFGYWGQGTQVTVSS”, the “polyreactivity (PSR sort gate)” value was “high polyreactivity”.
For “QVQLVESGGGLVQAGGSLRLSCAASGNIFSYYAMGWYRQAPGKERELVAAIYTGGSTYYADSVKGRFTISRDNAKNTVYLQMNSLKPEDTAVYYCAARGLKLRQDYDYWGQGTQVTVSS”, the “polyreactivity (PSR sort gate)” value is on record as “low polyreactivity”.
“QVQLVESGGGLVQAGGSLRLSCAASGNIFTFNAMGWYRQAPGKERELVAAIRSGGSTNYADSVKGRFTISRDNAKNTVYLQMNSLIPEDTAVYYCAAKRYVQGYVYRFGYWGQGTQVTVSS”: the “polyreactivity (PSR sort gate)” value is reported as “high polyreactivity”.
Consider “QVQLVESGGGLVQAGGSLRLSCAASGNIFTGNAMGWYRQAPGKERELVAAISSGGGSTYYADSVKGRFTISRDNAKNTVYLQMNSLKPEDTAVYYCAASRVRYSYGYPYYYWGQGTQVTVSS”, for which the “polyreactivity (PSR sort gate)” value was “high polyreactivity”.
Consider “QVQLVESGGGLVQAGGSLRLSCAASGNIFTYYVMGWYRQAPGKESELVAAISRRGGSTYYADSVKGRFTISRDNAKNTVYLQMNSLNPEDTAVYYCADRWYKWSTFSGWSRYDYWGQGTQVTVSS”, for which the “polyreactivity (PSR sort gate)” value is on record as “high polyreactivity”.
Take “QVQLVESGGGLVQAGGSLRLSCAASGNIFVAYAMGWYRQAPGKERELVAAITYNGGRTYYADSVKGRFTISRDNAKNTVYLQMNSLKPEDTAVYYCAARGYNPYGRKVGYWGQGTQVTVSS”: the “polyreactivity (PSR sort gate)” value is listed as “high polyreactivity”.
For the sequence “QVQLVESGGGLVQAGGSLRLSCAASGNIFVGNAMGWYRQAPGKERELVAAIRRSGGTTYYADSVKGRFTISRDIAKNTVYIQMNSLKPEDTAVYYSAASRPYQGDYWGQGTQVTVSS”, the “polyreactivity (PSR sort gate)” value is recorded as “low polyreactivity”.
To “QVQLVESGGGLVQAGGSLRLSCAASGNIFVNYAMGWYRQAPGKERELVASINYNGGNTYYADSVKGRFTISRDNAKNTVYLQMNSLKPEDTAVYYCAADLPESPESYYDTDDYWGQGTQVTVSS” belongs “low polyreactivity”; to “QVQLVESGGGLVQAGGSLRLSCAASGNIFVPSAMGWYRQEPGKERELVAAINVGGSTNYADSLNGRFTNSRDNPKNTVYLQMNSVKPEDTAVNYFGAVWYFLSLWYDYWGHGTQVTVSS”, “high polyreactivity”.
Consider “QVQLVESGGGLVQAGGSLRLSCAASGNIFYAYAMGWYRQAPGKEREFVAAITKNGGSTYYADSVKGRFTISRDNAKNTVYLQMISLKPEYTAVYYCTAGGVYPRFTFLEQGYEMDYWGQGTQVTVSS”, for which the “polyreactivity (PSR sort gate)” value is “low polyreactivity”.
Under “QVQLVESGGGLVQAGGSLRLSCAASGNIFYAYDMGWYRQAPGKERELVAAITNGDSTDYADSVKGRFTISRDNAKNTVYLQMNSLKPEDTAVYYCNAYYLPEPWALGGSQYDYWGQGTQVTVSS” stands “low polyreactivity”; under “QVQLVESGGGLVQAGGSLRLSCAASGNIFYINAMGWYRQAPGKERELVAAISSGGRTNYADSVKGRFTISRDNAKNTVYLQMNSLNPEDTEVYYCNADGWYAWRYYAPGGYDYWGQGTQVTVSS”, “low polyreactivity”.
As for “QVQLVESGGGLVQAGGSLRLSCAASGNIFYNVMGWYRQAPGKERELVAVISSGDSTYYADSVKGRFTISRDNAKNTVYLQMNSLKPEDTAVYYCNAQWITSAYLLYSYDYWWGYDYWGQGTQVTVSS”, the “polyreactivity (PSR sort gate)” value is recorded as “high polyreactivity”.
Consider “QVQLVESGGGLVQAGGSLRLSCAASGNIFYRYAMGWYRQAPGKERELVAAISGNSGNTYYADSVKGRFTISRDNAKNSVYLQMNSLKPEDTAVYYCAARPYYSYAGSGGYWGQGTQVTLSS”, for which the “polyreactivity (PSR sort gate)” value is given as “high polyreactivity”.
Take “QVQLVESGGGLVQAGGSLRLSCAASGNIFYVYVMGGYRQAPGKERELVASITSGASTYYADSVKGRFTISRDNAKNTVYLQMNSLKPDDTAVYYCAAEALGGAGDYSTLYIYDYWGQGTQVTVSS”: the “polyreactivity (PSR sort gate)” value is recorded as “low polyreactivity”.
“QVQLVESGGGLVQAGGSLRLSCAASGNIFYYNAMGWYRQAPGKVRELVAAITRSAGSTYYADSVKGRFPISRDNAKNTVYLQMNSLKPEDTAVYYCAATYSDLGYRYYSLGQGTQVTVSS”: the “polyreactivity (PSR sort gate)” value is “high polyreactivity”.
For the sequence “QVQLVESGGGLVQAGGSLRLSCAASGNIIIPYAMGWYRQAPGNEREFVAVMSTRGGSTYYADSVKGRFTISRDNAQNTVYLQMNSLKPEDTAVYYCAARYPYRYDYWGQGTQVTVSS”, the “polyreactivity (PSR sort gate)” value is recorded as “high polyreactivity”.
On to “QVQLVESGGGLVQAGGSLRLSCAASGNIITTYAMGWYRQAPGKERELVAAISRSGGRTNYADSVKGRFTISRDNAKNTVYLQMNSLKPEDTAVYYCAADGVPGRAVDYEYWGQGTQVTVSS”, for which the “polyreactivity (PSR sort gate)” value was “high polyreactivity”.
On to “QVQLVESGGGLVQAGGSLRLSCAASGNILEGYTMGWYRQAPGKERELVATISGRGGSTYYADSVKGRFTISRDYAKNTVYLQMHSLKPEDTAVYYCNALPWALYDSTSIYYYWGQGTQVTVSS”, for which the “polyreactivity (PSR sort gate)” value is reported as “low polyreactivity”.
As for “QVQLVESGGGLVQAGGSLRLSCAASGNILEGYTMGWYRQAPGQERELVATISGRGGSTYYADSVKGRFTMSRDNAKNTVYLQMHSLKPEDTAVYYCNALPWALYESTSIYYYWGQGTQVTVSS”, the “polyreactivity (PSR sort gate)” value was “low polyreactivity”.
On to “QVQLVESGGGLVQAGGSLRLSCAASGNILGSYAMGWYRQAPWKQRELVAAITWSGGTTYYADSVKGRFTISCDNAKNTVYLQMNSLKPEDTAVYYCAVEIVLTRFDYWGQGTQVTVSS”, for which the “polyreactivity (PSR sort gate)” value was “low polyreactivity”.
Turning to “QVQLVESGGGLVQAGGSLRLSCAASGNILGTYAMGWYRQAPGKERELVAAISSSVGSTYYADSVKGRFSISRDNAKKTVYLQMNSLKPEDTAVYYCAARNYQFYEKWGYLYDYWGQGTQVTVSS”, the “polyreactivity (PSR sort gate)” value is on record as “low polyreactivity”.
In the case of “QVQLVESGGGLVQAGGSLRLSCAASGNILRFNAMGWYRQAPGKERELVAAISRSGGTTYYADSVKGRFTISRDNAKNTVYLQMNSLKPEDTAVYYCAARSRYGESPGYYWGQGTQVTVSS”, the “polyreactivity (PSR sort gate)” value is “high polyreactivity”.
To “QVQLVESGGGLVQAGGSLRLSCAASGNISLPYTMGWYRQAPGKERELVAAISWDGGRTYYADSVKGRFTISRDNAKNTDYLQMNSLKPEDTAVYYCGARFFLVTLDYWGQGTQVTVSS” belongs “low polyreactivity”; to “QVQLVESGGGLVQAGGSLRLSCAASGNMFYRNGMGWYRQAPGKERQFVAAISRRGGSTYYADSVKGRFTISRDNAKNTVYLQMNSLKPEDTAVYYCATRYWPTNKGEYWGQGTQVTVSS”, “high polyreactivity”.
In the case of “QVQLVESGGGLVQAGGSLRLSCAASGNNFSRYSMGCSRPAPGKERELVASISRGGRTNYADSVKGRFTISLDNAKNTVYLQMNSLNPEDTAVYYCALGGNGYWHQSGPYPYNYWGQGTQVTVSS”, the “polyreactivity (PSR sort gate)” value is reported as “high polyreactivity”.
